# Measured values published in patent US20060286066A1 (published 2006).
# Numbering of substitutions follows the chain as printed.
# T1: TNF receptor 1 Fc fusion protein (R&D Systems) (human, UniProt P19438 30-211, limits assumed)
# T1 construct: also called recombinant TNF receptor 1 (p55); not shown: Fc part of the bought fusion protein, captured by an anti-human Fc antibody
# T1 sequence (looked up): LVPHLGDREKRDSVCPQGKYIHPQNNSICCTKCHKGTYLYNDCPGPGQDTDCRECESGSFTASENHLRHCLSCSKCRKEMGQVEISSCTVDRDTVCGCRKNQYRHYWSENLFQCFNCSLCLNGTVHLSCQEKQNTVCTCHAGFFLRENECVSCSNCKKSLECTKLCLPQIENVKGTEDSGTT
# T2: Biotinylated human TNFRI (human, UniProt P19438 30-211, limits assumed, biotinylated (approx 1 biotin per molecule))
# T2 sequence (looked up): T1 sequence (looked up)
# B1: HEL4 PEGylated with SPA-PEG (other)
# VH: EVQLLESGGGLVQPGGSLRLSCAASGFRISDEDMGWVRQAPGKGLEWVSSIYGPSGSTYYADSVKGRFTISRDNSKNTLYLQMNSLRAEDTAVYYCASALEPLSEPLGFWGQGTLVTVSS
# modifications: SPA-PEG on surface lysine residues (sites not given)
# notes: also called PEGylated HEL4
# B2: HEL4 PEGylated with NHS-PEG (other)
# VH: B1 VH
# modifications: NHS-PEG on surface lysine residues (sites not given)
# notes: also called PEGylated HEL4; HEL4 40K PEG-NHS
# B3: TAR210-27 2 × 20K MAL PEG (other)
# VH: ASTEVQLLESGGGLVQPGGSLRLSCAASGFTFEWYWMGWVRQAPGKGLEWVSAISGSGGSTYYADSVKGRFTISRDNSKNTLYLQMNSLRAEDAAVYYCAKVKLGGGPNFGYRGQGTLVTVSC
# modifications: 2 × 20K (40K branched) MAL-PEG on the C-terminal Cys (Ser120cys)
# notes: For the limits of the entry see m36; also called 40K PEGylated monomer (TAR2-10-27)
# B4: TAR210-27 5K MAL PEG (other)
# VH: B3 VH
# modifications: 5K MAL-PEG on the C-terminal Cys (Ser120cys)
# notes: For the limits of the entry see m36
# B5: TAR210-27 2 × 10K MAL PEG (other)
# VH: B3 VH
# modifications: 2 × 10K MAL-PEG on the C-terminal Cys (Ser120cys)
# notes: as for B4
# B6: TAR2-10-27 Ser120cys 30K MAL PEG (other)
# VH: B3 VH
# modifications: 30K MAL-PEG on the C-terminal Cys (Ser120cys)
# notes: TAR2-10-27 cys; For the limits of the entry see m36; also called TAR210-27 30K MAL PEG
# B7: TAR2-10-27 Ser120cys blocked (other)
# VH: B3 VH
# modifications: C-terminal Cys (Ser120cys) blocked with N-ethylmaleimide
# notes: TAR2-10-27 cys; the entry already carries Ser120cys
# B8: TAR210-27 20K MAL PEG (other)
# VH: B3 VH
# modifications: 20K MAL-PEG on the C-terminal Cys (Ser120cys)
# notes: as for B4
# B9: TAR2-10-27 Asp62cys blocked (other)
# VH: B3 VH with D65C, C123S
# modifications: Cys62 blocked with N-ethylmaleimide
# notes: For numbering and entry offset see m28
# B10: TAR2-10-27 Gln112cys 30K MAL PEG (other)
# VH: B3 VH with Q115C, C123S
# modifications: 30K MAL-PEG on Cys112
# notes: as for B9
# B11: TAR2-10-27 Thr117cys 30K MAL PEG (other)
# VH: B3 VH with T120C, C123S
# modifications: 30K MAL-PEG on Cys117
# notes: as for B9
# B12: TAR2-10-27 Pro41cys blocked (other)
# VH: B3 VH with P44C, C123S
# modifications: Cys41 blocked with N-ethylmaleimide
# notes: as for B9
# B13: TAR2-10-27 Pro41cys 30K MAL PEG (other)
# VH: B3 VH with P44C, C123S
# modifications: 30K MAL-PEG on Cys41
# notes: as for B9
# B14: TAR2-10-27 Gln13cys blocked (other)
# VH: B3 VH with Q16C, C123S
# modifications: Cys13 blocked with N-ethylmaleimide
# notes: as for B9
# B15: TAR2-10-27 Glu89cys 30K MAL PEG (other)
# VH: B3 VH with E92C, C123S
# modifications: 30K MAL-PEG on Cys89
# notes: as for B9
# B16: TAR2-10-27 Gln13cys 30K MAL PEG (other)
# VH: B3 VH with Q16C, C123S
# modifications: 30K MAL-PEG on Cys13
# notes: as for B9
# B17: TAR2-10-27 Leu115cys blocked (other)
# VH: B3 VH with L118C, C123S
# modifications: Cys115 blocked with N-ethylmaleimide
# notes: as for B9
# B18: TAR2-10-27 Gln112cys blocked (other)
# VH: B3 VH with Q115C, C123S
# modifications: Cys112 blocked with N-ethylmaleimide
# notes: as for B9
# B19: TAR2-10-27 Leu115cys 30K MAL PEG (other)
# VH: B3 VH with L118C, C123S
# modifications: 30K MAL-PEG on Cys115
# notes: as for B9
# B20: TAR2-10-27 Glu89cys blocked (other)
# VH: B3 VH with E92C, C123S
# modifications: Cys89 blocked with N-ethylmaleimide
# notes: as for B9
# B21: TAR2-10-27 Thr117cys blocked (other)
# VH: B3 VH with T120C, C123S
# modifications: Cys117 blocked with N-ethylmaleimide
# notes: as for B9
# B22: TAR2-10-27 Asp62cys 30K MAL PEG (protein)
# VH: B3 VH with D65C, C123S
# modifications: 30K MAL-PEG on Cys62
# Target: hen egg white lysozyme (hen, UniProt P00698 19-147)
# Experiment: batch binding to lysozyme-Sepharose affinity resin, SDS-PAGE read-out
# Procedure: A HEL4 affinity based resin (based on the antigen, hen egg white lysozyme) was produced to test the functionality of the PEGylated dAb. Lysozyme was coupled to NETS activated Sepharose 4B resin (Amersham Pharmacia) following the manufacturer's instructions. The PEGylated samples (5 μg) were then mixed with the affinity resin (100 μl) and allowed to bind in PBS at room temperature for 30 mins. The resin was then extensively washed with PBS (3×1 ml) to remove unbound protein. The affinity resin was then run on a SDS-PAGE to determine if the PEGylated HEL4 had bound to the matrix (see Section 8.3).
# Chain of hen egg white lysozyme (P00698 19-147 limits assumed): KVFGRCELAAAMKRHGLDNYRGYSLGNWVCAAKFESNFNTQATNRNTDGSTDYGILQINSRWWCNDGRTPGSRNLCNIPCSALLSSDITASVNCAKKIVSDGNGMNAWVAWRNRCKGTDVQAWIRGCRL
row,binding result,Binder
1,binds,B1
2,binds,B2

# Target: T1, TNF receptor 1 Fc fusion protein (R&D …)
# Experiment: TNF receptor binding assay: dAb titrated against TNF binding to TNF receptor 1
row,IC50 [nM],Binder
1,~20,B3

# Target: T2, Biotinylated human TNFRI
# Experiment: SPR (Biacore), biotinylated human TNFRI on streptavidin chip, dAb injected
# Excerpt: (§1) The effect of PEGylation on the binding affinity of TAR2-10-27 for its antigen was investigated using Biacore. All the PEGylated formats were generated using TAR2-10-27cys (see Example 2). The following methodology was used to determine the on and off rates of each PEGylated dAb format for the antigen. Biotinylated human TNFRI (approx 1 biotin per molecule) was coated onto a single flow cell of a Biacore streptavidin sensor chip at a density of approximately 400 RU. A concentration series of each dAb or PEGylated dAb (2.6 μM, 770 nM, 260 nM, 77 nM and 2.6 nM) was sequentially injected (45 μl injection at a flow rate of 30 μl/min) over both the TNFRI coated flow cell and an uncoated flow cell (streptavidin), (a subtractive curve was generated by subtracting the uncoated flow cell curve from the TNFRI flow cell curve). The off-rate was analysed for five minutes after the injection of each sample after which the surface was regenerated by injection of 10 mM glycine pH 3.
# (§2) Data generated from the Biacore was fitted using the curve fitting software (Biaevaluation 3.2) and the association constant (kₐ) and dissociation constant (kd) determined (Table 8).
koff [s⁻¹],kon [M⁻¹ s⁻¹],Binder
0.011,90000,B4
0.00954,120000,B5
0.00769,83400,B6
0.00517,74700,B3
0.00596,577000,B7
0.012,79900,B8

# Target: T2, Biotinylated human TNFRI
# Experiment: SPR (Biacore), biotinylated human TNFRI on streptavidin chip, dAb injected; KD from mean kd/ka
# Excerpt: as §1, §2
row,Kd [nM],Binder
1,122,B4
2,79.5,B5
3,92.2,B6
4,69.2,B3
5,10.3,B7
6,150,B8

# Target: T1, TNF receptor 1 Fc fusion protein (R&D …)
# Experiment: DOM1 receptor binding assay (RBA): dAb titrated against TNF binding to TNF receptor 1
# Procedure: Assays for the measurement of receptor binding by a ligand, e.g., a cytokine, are known in the art. […] Briefly, Maxisorp plates are incubated overnight with […] anti-human Fc mouse monoclonal antibody (Zymed, San Francisco, USA). […] The plate is washed to remove any unbound protein before the detection step. […] The reaction is stopped by the addition of HCl and the absorbance is read at 450 nm.
row,IC50 [nM],Binder
1,15,B9
2,15,B10
3,8,B11
4,1,B12
5,8,B13
6,2,B14
7,10,B6
8,20,B15
9,8,B16
10,3,B17
11,2,B18
12,3,B7
13,10,B19
14,3,B20
15,3,B21

# Target: p55 TNF-α receptor on MRC-5 cells (human) (UniProt P19438)
# Experiment: cell-based or functional assay
# Chain of p55 TNF-α receptor on MRC-5 cells (human) (P19438 30-455): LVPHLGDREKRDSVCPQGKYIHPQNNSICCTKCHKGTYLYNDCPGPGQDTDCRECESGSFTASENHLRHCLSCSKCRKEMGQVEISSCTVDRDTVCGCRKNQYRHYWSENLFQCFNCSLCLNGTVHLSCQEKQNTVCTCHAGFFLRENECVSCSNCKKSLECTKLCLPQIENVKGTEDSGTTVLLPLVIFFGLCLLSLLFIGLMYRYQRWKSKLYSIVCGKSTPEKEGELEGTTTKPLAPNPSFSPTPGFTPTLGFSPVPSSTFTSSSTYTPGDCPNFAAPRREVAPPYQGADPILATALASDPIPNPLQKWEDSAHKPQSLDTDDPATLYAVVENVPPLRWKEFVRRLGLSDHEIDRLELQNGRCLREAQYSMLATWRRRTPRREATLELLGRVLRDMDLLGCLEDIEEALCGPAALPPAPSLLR
row,MRC5 cell assay ND 50 [nM],Binder
1,430,B9
2,1000,B22
3,650,B10
4,700,B11
5,45,B12
6,200,B13
7,30,B14
8,600,B6
9,100,B15
10,200,B16
11,30,B17
12,15,B18
13,30,B7
14,300,B19
15,70,B20
16,30,B21
